This is an account of results in US20160264664A1.

The koff is the rate constant with which the complex falls apart. Read a high koff as a short-lived complex.

Assay [1] deals with plasma-derived HBsAg particles (Biodesign) (hepatitis B virus). Briefly: SPR (Biacore), periplasmic extract over immobilised plasma-derived HBsAg particles, 1:1 dissociation model.
Assay [2] addresses T1, mouse P2X7 (mouse) (UniProt Q9Z1M0).
T1 sequence: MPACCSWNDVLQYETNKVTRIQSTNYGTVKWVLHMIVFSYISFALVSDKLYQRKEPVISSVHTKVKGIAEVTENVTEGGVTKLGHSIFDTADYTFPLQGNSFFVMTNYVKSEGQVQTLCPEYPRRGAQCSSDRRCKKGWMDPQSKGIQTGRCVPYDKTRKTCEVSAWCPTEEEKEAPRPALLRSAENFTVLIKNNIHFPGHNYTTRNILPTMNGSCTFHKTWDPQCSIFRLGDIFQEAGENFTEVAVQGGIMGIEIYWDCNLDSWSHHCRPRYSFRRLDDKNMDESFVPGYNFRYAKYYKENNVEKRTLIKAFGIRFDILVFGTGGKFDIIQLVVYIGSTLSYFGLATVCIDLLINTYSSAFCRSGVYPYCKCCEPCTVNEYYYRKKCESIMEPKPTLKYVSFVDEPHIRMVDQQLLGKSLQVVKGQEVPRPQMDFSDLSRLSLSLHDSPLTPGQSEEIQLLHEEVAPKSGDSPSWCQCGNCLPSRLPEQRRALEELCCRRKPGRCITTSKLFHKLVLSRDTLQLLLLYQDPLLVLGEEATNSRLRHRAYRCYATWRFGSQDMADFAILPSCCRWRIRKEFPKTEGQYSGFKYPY
As to the kind of experiment: cell-based or functional assay.

B1: HBSAGPMP2E12 (VHH)
VHH: EVQLVESGGGLVQAGGSLRLSCAASGRSISEYAMGWFRQAPGQEREFVASISTSGGSTTYADSVKGRFIISRDNAKNTVYLQMNSLKPEDTAVYYCARYNGWMYYAGTMGVHFGQGTQVTVSS
B1 yielded a koff in assay [1] of 0.0013 s⁻¹.

B2: 13A7-35GS-13A7 (VHH)
chain: EVQLVESGGGLVQPGESLRLSCTASRFMLDYYDIGWFRQAPGKEREGVSCRFTNDGSTAYADSVKGRFTISRDIVKHTVYLQMNSLQPEDTAVYYCAAGPLTKRRQCVPGDFSMDFWGEGTLVTVSSGGGGSGGGGSGGGGSGGGGSGGGGSGGGGSGGGGSEVQLVESGGGLVQPGESLRLSCTASRFMLDYYDIGWFRQAPGKEREGVSCRFTNDGSTAYADSVKGRFTISRDIVKHTVYLQMNSLQPEDTAVYYCAAGPLTKRRQCVPGDFSMDFWGEGTLVTVSS
Regarding B2, in assay [2], the IC50, CD62L shedding at 20 µM NAD was 0.3 nM; the IC50, CD62L shedding at 100 µM ATP turned out to be 0.1 nM; the potency increase vs. monovalent 13A7 (ATP) worked out at 9 fold; the potency increase vs. monovalent 13A7 (NAD) worked out at 23 fold.

B3: HBSAGPMP2E7 (VHH)
VHH: EVQLVESGGGLLQAGGSLRLSCAASERAFIIYGKAWFRQAPGKEREFVAGINWNGGDLHYADSVKGRFTISRDNTNNVVYLQMNSLKSEDTAVYYCAVRRGTAYETDVSSYEWGTQVTVSS
In turn, B3 had a dissociation rate constant (koff) in assay [1] of 0.00088 s⁻¹.

B4: 14D5-35GS-14D5 (VHH)
chain: EVQLVESGGGLVQAGGSLRLSCAASGSPISSYAMGWYRQAPGKPRELVARIYTGGTAWYEDSVKGRFTISRDNAQNTVYLQMNSLKSEDTAVYYCHGRVRYDYWGQGTQVTVSSGGGGSGGGGSGGGGSGGGGSGGGGSGGGGSGGGGSEVQLVESGGGLVQAGGSLRLSCAASGSPISSYAMGWYRQAPGKPRELVARIYTGGTAWYEDSVKGRFTISRDNAQNTVYLQMNSLKSEDTAVYYCHGRVRYDYWGQGTQVTVSS
As to B4, in assay [2], the EC50, enhancement of CD62L-ectodomain shedding at 1.5 µM NAD was determined as 0.06 nM; the EC50, enhancement of CD62L-ectodomain shedding at 33 µM ATP worked out at 0.1 nM; the increase in potency vs. monovalent 14D5 (ATP-induced shedding) was found to be 220 fold; the increase in potency vs. monovalent 14D5 (NAD-induced shedding) came to 40 fold.

B5: 8G11-35GS-8G11 (VHH)
chain: EVQLVESGGGLVQAGGSLRLSCAASGNFFRVNTMAWYRQAPGKQRELVADITRGDRTNYADTVNGRFTISRDNVRNTVYLQMNGLRPEDTAAYYCYAVIELGVLEPRDYWGQGTQVTVSSGGGGSGGGGSGGGGSGGGGSGGGGSGGGGSGGGGSEVQLVESGGGLVQAGGSLRLSCAASGNFFRVNTMAWYRQAPGKQRELVADITRGDRTNYADTVNGRFTISRDNVRNTVYLQMNGLRPEDTAAYYCYAVIELGVLEPRDYWGQGTQVTVSS
In assay [2], B5 yielded an IC50, CD62L shedding at 20 µM NAD of 0.52 nM; an IC50, CD62L shedding at 100 µM ATP of 0.2 nM; a potency increase vs. monovalent 8G11 (ATP) of 84 fold; a potency increase vs. monovalent 8G11 (NAD) of 146 fold.
